Source: the supplement of paper PMC10567573

B1: INTS3 (parent)
chain: EEITEESLEESVGKPLYLIFRNLC

Variants of: B1
Assay: protein stability index of a GFP-peptide fusion (GPS, HEK-293T) (PSI 1-6); higher = more stable
Settings: c terminus: a fixed tail appended
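Note: lentivirally expressed fusions sorted by FACS into six bins by GFP to DsRed ratio, PSI derived from sequencing read proportions per bin multiplied by bin number.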

Row | Variant | protein stability index
1 | EEITEESLEEKVGKPLYLIFRNLC | 2.61
2 | EEITEESLEEDVGKPLYLIFRNLC | 3.03
3 | EEITEESLEEYVGKPLYLIFRNLC | 2.58
4 | EEITEESLEEEVGKPLYLIFRNLC | 2.55
5 | EEITEESLEEVVGKPLYLIFRNLC | 2.32
6 | EEITEESLEEIVGKPLYLIFRNLC | 2.52
7 | EEITEESLEEQVGKPLYLIFRNLC | 3.33
8 | EEITEESLEEMVGKPLYLIFRNLC | 2.8
9 | EEITEESLEENVGKPLYLIFRNLC | 2.96
10 | EEITEESLEEFVGKPLYLIFRNLC | 2.57
11 | EEITEESLEECVGKPLYLIFRNLC | 2.34
12 | EEITEESLEEGVGKPLYLIFRNLC | 2.9
13 | EEITEESLEEHVGKPLYLIFRNLC | 2.56
14 | EEITEESLEEPVGKPLYLIFRNLC | 2.36
15 | EEITEESLEETVGKPLYLIFRNLC | 2.79
16 | EEITEESLEELVGKPLYLIFRNLC | 2.51
17 | EEITEESLEEWVGKPLYLIFRNLC | 2.4
18 | EEITEESLEEAVGKPLYLIFRNLC | 2.57
19 | EEITEESLEERVGKPLYLIFRNLC | 2.71
20 | EEITEESLEESVGKPLYLIARNLC | 2.82
21 | EEITEESLEESVGKPLYLIDRNLC | 4.48
22 | EEITEESLEESVGKPLYLICRNLC | 3.32
23 | EEITEESLEESVGKPLYLIERNLC | 3.53
24 | EEITEESLEESRGKPLYLIFRNLC | 2.86

Row | Variant | protein stability index
25 | EEITEESLEESDGKPLYLIFRNLC | 3.63
26 | EEITEESLEESFGKPLYLIFRNLC | 2.56
27 | EEITEESLEESGGKPLYLIFRNLC | 3.12
28 | EEITEESLEESCGKPLYLIFRNLC | 2.55
29 | EEITEESLEESEGKPLYLIFRNLC | 3.36
30 | EEITEESLEESSGKPLYLIFRNLC | 3.54
31 | EEITEESLEESNGKPLYLIFRNLC | 2.95
32 | EEITEESLEESLGKPLYLIFRNLC | 2.5
33 | EEITEESLEESMGKPLYLIFRNLC | 2.26
34 | EEITEESLEESYGKPLYLIFRNLC | 2.36
35 | EEITEESLEESKGKPLYLIFRNLC | 3.54
36 | EEITEESLEESPGKPLYLIFRNLC | 2.94
37 | EEITEESLEESQGKPLYLIFRNLC | 3.34
38 | EEITEESLEESHGKPLYLIFRNLC | 3.28
39 | EEITEESLEESIGKPLYLIFRNLC | 2.51
40 | EEITEESLEESAGKPLYLIFRNLC | 3.26
41 | EEITEESLEESWGKPLYLIFRNLC | 2.47
42 | EEITEESLEESTGKPLYLIFRNLC | 3.13
43 | EEITEESLEESVGKPLYLSFRNLC | 3.33
44 | EEITEESLEESVGKPLYLGFRNLC | 3.67
45 | EEITEESLEESVGKPLYLAFRNLC | 3.73
46 | EEITEESLEESVGKPLYLCFRNLC | 3.62
47 | EEITEESLEESVGKPLYLRFRNLC | 3.7
48 | EEITEESLEESVGKPLYLKFRNLC | 3.66

Row | Variant | protein stability index
49 | EEITEESLEESVGKPLYLLFRNLC | 2.86
50 | EEITEESLEESVGKPLYLQFRNLC | 4
51 | EEITEESLEESVGKPLYLWFRNLC | 2.91
52 | EEITEESLEESVGKPLYLEFRNLC | 3.9
53 | EEITEESLEESVGKPLYLVFRNLC | 3.16
54 | EEITEESLEESVGKPLYLMFRNLC | 3.06
55 | EEITEESLEESVGKPLYLFFRNLC | 2.3
56 | EEITEESLEESVGKPLYLYFRNLC | 2.75
57 | EEITEESLEESVGKPLYLNFRNLC | 3.92
58 | EEITEESLEESVGKPLYLTFRNLC | 3.41
59 | EEITEESLEESVGKPLYLHFRNLC | 3.85
60 | EEITEESLEESVGKPLYLDFRNLC | 3.89
61 | EEITEESLEESVGKPLYLPFRNLC | 4.17
62 | EEITEESLEESVGKPNYLIFRNLC | 3.62
63 | EEITEESLEESVGKPMYLIFRNLC | 2.92
64 | EEITEESLEESVGKPDYLIFRNLC | 4.26
65 | EEITEESLEESVGKPKYLIFRNLC | 3.39
66 | EEITEESLEESVGKPYYLIFRNLC | 2.78
67 | EEITEESLEESVGKPQYLIFRNLC | 3.69
68 | EEITEESLEESVGKPCYLIFRNLC | 2.68
69 | EEITEESLEESVGKPIYLIFRNLC | 2.56
70 | EEITEESLEESVGKPEYLIFRNLC | 3.26
71 | EEITEESLEESVGKPAYLIFRNLC | 2.99
72 | EEITEESLEESVGKPTYLIFRNLC | 3.23

Row | Variant | protein stability index
73 | EEITEESLEESVGKPRYLIFRNLC | 3.38
74 | EEITEESLEESVGKPHYLIFRNLC | 3.09
75 | EEITEESLEESVGKPVYLIFRNLC | 2.93
76 | EEITEESLEESVGKPWYLIFRNLC | 2.41
77 | EEITEESLEESVGKPGYLIFRNLC | 3.38
78 | EEITEESLEESVGKPFYLIFRNLC | 3.35
79 | EEITEESLEESVGKPSYLIFRNLC | 3.29
80 | EEITEESLEESVGKPPYLIFRNLC | 3.52
81 | EEITEESLEESVGKPLYIIFRNLC | 2.72
82 | EEITEESLEESVGKPLYCIFRNLC | 2.7
83 | EEITEESLEESVGKPLYSIFRNLC | 3.37
84 | EEITEESLEESVGKPLYHIFRNLC | 3.4
85 | EEITEESLEESVGKPLYTIFRNLC | 3.37
86 | EEITEESLEESVGKPLYPIFRNLC | 3.69
87 | EEITEESLEESVGKPLYMIFRNLC | 3.38
88 | EEITEESLEESVGKPLYYIFRNLC | 2.93
89 | EEITEESLEESVGKPLYDIFRNLC | 3.35
90 | EEITEESLEESVGKPLYVIFRNLC | 2.7
91 | EEITEESLEESVGKPLYKIFRNLC | 3.1
92 | EEITEESLEESVGKPLYGIFRNLC | 3.71
93 | EEITEESLEESVGKPLYNIFRNLC | 3.38
94 | EEITEESLEESVGKPLYQIFRNLC | 3.21
95 | EEITEESLEESVGKPLYAIFRNLC | 2.92
96 | EEITEESLEESVGKPLYRIFRNLC | 2.82

Row | Variant | protein stability index
97 | EEITEESLEESVGKPLYWIFRNLC | 2.16
98 | EEITEESLEESVGKPLYEIFRNLC | 3.12
99 | EEITEESLEESVGKPLYFIFRNLC | 2.3
100 | EEITEESLEESVGKKLYLIFRNLC | 1.93
101 | EEITEESLEESVGKILYLIFRNLC | 2.17
102 | EEITEESLEESVGKDLYLIFRNLC | 3.32
103 | EEITEESLEESVGKALYLIFRNLC | 1.25
104 | EEITEESLEESVGKNLYLIFRNLC | 2.29
105 | EEITEESLEESVGKFLYLIFRNLC | 1.97
106 | EEITEESLEESVGKQLYLIFRNLC | 1.52
107 | EEITEESLEESVGKHLYLIFRNLC | 2.24
108 | EEITEESLEESVGKVLYLIFRNLC | 1.77
109 | EEITEESLEESVGKLLYLIFRNLC | 1.85
110 | EEITEESLEESVGKSLYLIFRNLC | 2.02
111 | EEITEESLEESVGKCLYLIFRNLC | 2.05
112 | EEITEESLEESVGKRLYLIFRNLC | 2.12
113 | EEITEESLEESVGKMLYLIFRNLC | 2
114 | EEITEESLEESVGKYLYLIFRNLC | 1.74
115 | EEITEESLEESVGKGLYLIFRNLC | 2
116 | EEITEESLEESVGKTLYLIFRNLC | 2.06
117 | EEITEESLEESVGKELYLIFRNLC | 2.14
118 | EEITEESLEESVGKWLYLIFRNLC | 2.06
119 | EEITEESLEESVGKPLVLIFRNLC | 2.68
120 | EEITEESLEESVGKPLHLIFRNLC | 3.69

Row | Variant | protein stability index
121 | EEITEESLEESVGKPLTLIFRNLC | 3.22
122 | EEITEESLEESVGKPLQLIFRNLC | 2.92
123 | EEITEESLEESVGKPLLLIFRNLC | 2.28
124 | EEITEESLEESVGKPLDLIFRNLC | 4.25
125 | EEITEESLEESVGKPLWLIFRNLC | 2.84
126 | EEITEESLEESVGKPLPLIFRNLC | 4.11
127 | EEITEESLEESVGKPLELIFRNLC | 3.33
128 | EEITEESLEESVGKPLMLIFRNLC | 2.85
129 | EEITEESLEESVGKPLNLIFRNLC | 3.46
130 | EEITEESLEESVGKPLSLIFRNLC | 2.85
131 | EEITEESLEESVGKPLALIFRNLC | 3.32
132 | EEITEESLEESVGKPLCLIFRNLC | 3.12
133 | EEITEESLEESVGKPLFLIFRNLC | 2.73
134 | EEITEESLEESVGKPLGLIFRNLC | 3.59
135 | EEITEESLEESVGKPLILIFRNLC | 2.62
136 | EEITEESLEESVGKPLKLIFRNLC | 4.07
137 | EEITEESLEESVGKPLRLIFRNLC | 2.61
138 | EEITEESLEESVHKPLYLIFRNLC | 2.23
139 | EEITEESLEESVVKPLYLIFRNLC | 1.98
140 | EEITEESLEESVQKPLYLIFRNLC | 3.11
141 | EEITEESLEESVIKPLYLIFRNLC | 1.81
142 | EEITEESLEESVMKPLYLIFRNLC | 2.5
143 | EEITEESLEESVNKPLYLIFRNLC | 2.64
144 | EEITEESLEESVTKPLYLIFRNLC | 2.46

Row | Variant | protein stability index
145 | EEITEESLEESVEKPLYLIFRNLC | 3.12
146 | EEITEESLEESVRKPLYLIFRNLC | 2.7
147 | EEITEESLEESVKKPLYLIFRNLC | 2.44
148 | EEITEESLEESVYKPLYLIFRNLC | 2.14
149 | EEITEESLEESVLKPLYLIFRNLC | 2.23
150 | EEITEESLEESVSKPLYLIFRNLC | 2.36
151 | EEITEESLEESVAKPLYLIFRNLC | 2.88
152 | EEITEESLEESVCKPLYLIFRNLC | 2.37
153 | EEITEESLEESVPKPLYLIFRNLC | 3.31
154 | EEITEESLEESVWKPLYLIFRNLC | 1.79
155 | EEITEESLEESVDKPLYLIFRNLC | 2.88
156 | EEITEESLEESVFKPLYLIFRNLC | 2.28
157 | EEITEESLETSVGKPLYLIFRNLC | 2.55
158 | EEITEESLELSVGKPLYLIFRNLC | 2.07
159 | EEITEESLESSVGKPLYLIFRNLC | 2.79
160 | EEITEESLEWSVGKPLYLIFRNLC | 2.21
161 | EEITEESLEKSVGKPLYLIFRNLC | 2.5
162 | EEITEESLEQSVGKPLYLIFRNLC | 2.67
163 | EEITEESLENSVGKPLYLIFRNLC | 2.78
164 | EEITEESLEYSVGKPLYLIFRNLC | 2.23
165 | EEITEESLEVSVGKPLYLIFRNLC | 2.09
166 | EEITEESLERSVGKPLYLIFRNLC | 2.24
167 | EEITEESLEPSVGKPLYLIFRNLC | 2.36
168 | EEITEESLEISVGKPLYLIFRNLC | 1.77

Row | Variant | protein stability index
169 | EEITEESLEMSVGKPLYLIFRNLC | 2.24
170 | EEITEESLEESVGWPLYLIFRNLC | 2.39
171 | EEITEESLEESVGQPLYLIFRNLC | 3.19
172 | EEITEESLEESVGEPLYLIFRNLC | 3.54
173 | EEITEESLEESVGHPLYLIFRNLC | 3.2
174 | EEITEESLEESVGPPLYLIFRNLC | 3.67
175 | EEITEESLEESVGNPLYLIFRNLC | 3.52
176 | EEITEESLEESVGYPLYLIFRNLC | 2.47
177 | EEITEESLEESVGSPLYLIFRNLC | 2.94
178 | EEITEESLEESVGTPLYLIFRNLC | 3.38
179 | EEITEESLEESVGAPLYLIFRNLC | 2.96
180 | EEITEESLEESVGMPLYLIFRNLC | 2.48
181 | EEITEESLEESVGRPLYLIFRNLC | 3.31
182 | EEITEESLEESVGDPLYLIFRNLC | 3.48
183 | EEITEESLEESVGIPLYLIFRNLC | 2.78
184 | EEITEESLEESVGLPLYLIFRNLC | 3.3
185 | EEITEESLEESVGGPLYLIFRNLC | 2.96
186 | EEITEESLEESVGCPLYLIFRNLC | 3.5
187 | EEITEESLEESVGFPLYLIFRNLC | 2.25
188 | EEITEESLEESVGVPLYLIFRNLC | 2.6
